# B1: Nb61 (VHH)
# VHH: QVQLQESGGGSVQAGGSLRLSCAGSDFPYCSYDMSWYRQAPGKEREFVSGIDRDGTIRYADAVKGRFTISQGDAKNTLYLQMNSLKPEDTAMYYCKTTPRNYNDFLGCVDYWGQGTQVTVSS
# Molecular target: mAb-1E7
# Test: SPR; Biacore 8K; mAb-1E7 immobilized on a Protein G chip; PCV2-Cap or Nb61 injected at 30 µL/min, 1.5625 to 25 nM; 10 mM HEPES pH 7.4, 150 mM NaCl, 3 mM EDTA, 0.05% Tween 20
# Chain of mAb-1E7 (heavy, as listed by the source, chain 1 of 2): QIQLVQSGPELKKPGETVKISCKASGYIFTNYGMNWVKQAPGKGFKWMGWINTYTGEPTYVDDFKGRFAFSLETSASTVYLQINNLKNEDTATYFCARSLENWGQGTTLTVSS
# Chain of mAb-1E7 (light, as listed by the source, chain 2 of 2): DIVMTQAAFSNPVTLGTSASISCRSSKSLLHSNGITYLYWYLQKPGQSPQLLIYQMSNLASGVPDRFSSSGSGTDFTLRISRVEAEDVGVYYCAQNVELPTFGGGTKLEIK
binder,measurement,value
B1,Kd,12 nM
same,koff,0.0222 s⁻¹
same,kon,1.86e+06 M⁻¹ s⁻¹

# From article PMC10878242
